# Experimental data as given in US20220002357A1.
# What was measured:
# [1] = target: mu-opioid receptor fused to Gαi1-RLuc8 chimera (MOR-Gi1RLuc) (human) (UniProt P63096); test: ADSoRB radiotracer adsorption to microsomal membranes, scintillation counting
# [2] = target: mu-opioid receptor unfused (MOR); test: as above
# [3] = target: mu-opioid receptor fused to Gαi1-RLuc8 chimera (MOR-Gi1RLuc) (human) (UniProt P63096); test: ADSoRB radiotracer elution from microsomal membranes with GPPNHP, scintillation counting
# [4] = target: mu-opioid receptor unfused (MOR); test: as above
# [5] = target: µ-opioid receptor (MOR) fused to Gαi1 protein (MOR-Gi1) (human) (UniProt P63096); test: ADSoRB radiotracer elution from microsomal membranes with GPPNHP, scintillation counting (FIG. 2B)
# µ-opioid receptor (MOR) fused to Gαi1 protein (MOR-Gi1) (human), sequence (P63096 whole entry, the tested form may be a part): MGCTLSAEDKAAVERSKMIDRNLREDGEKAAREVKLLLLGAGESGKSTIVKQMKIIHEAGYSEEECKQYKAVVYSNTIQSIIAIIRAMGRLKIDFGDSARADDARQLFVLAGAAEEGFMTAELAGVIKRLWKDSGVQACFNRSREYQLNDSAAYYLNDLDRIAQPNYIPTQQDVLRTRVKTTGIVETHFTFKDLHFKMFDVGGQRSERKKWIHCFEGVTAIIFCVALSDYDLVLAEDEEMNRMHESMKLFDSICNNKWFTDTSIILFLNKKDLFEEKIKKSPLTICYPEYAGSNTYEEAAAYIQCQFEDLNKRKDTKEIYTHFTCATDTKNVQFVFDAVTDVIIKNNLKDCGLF
# [6] = target: µ-opioid receptor (MOR) fused to Gαi1 protein (MOR-Gi1) (human) (UniProt P63096); test: ADSoRB radiotracer elution from microsomal membranes with buffer control, scintillation counting (FIG. 2B)
# neurotensin receptor = test: cell-based or functional assay
# mu-opioid receptor fused to Gαi1-RLuc8 chimera (MOR-Gi1RLuc) (human), sequence (P63096 whole entry, change not shown, the tested form may be a part): as the sequence (P63096 whole entry, the tested form may be a part) above
Substance,unbound tracer (%) (% unbound tracer) [1],unbound tracer (%) (% unbound tracer) [2],fraction of agonist eluted upon GPPNHP treatment (% of total agonist) (% of total agonist) [3],fraction of agonist eluted upon GPPNHP treatment (% of total agonist) (% of total agonist) [4],elution upon complex dissociation/uncoupling with GPPNHP (% of total agonist added) (% of total agonist added) [5],elution with buffer control (% of total agonist added) (% of total agonist added) [6],"NET BRET response at GαZ, 96-well plate (neurotensin receptor)","NET BRET response at GαZ, 384-well plate (neurotensin receptor)","Neurotensin potency, GαZ-114-Rluc8/Gβ3γ1-GFP2 BRET biosensor, 96-well plate (neurotensin receptor) [nM]","Neurotensin potency, GαZ-114-Rluc8/Gβ3γ1-GFP2 BRET biosensor, 384-well plate (neurotensin receptor) [nM]"
[3H]DAMGO (peptide),23,67,7,0.8,30,2,–,–,–,–
neurotensin peptide (8-13) (from UniProt P30990 31-36),–,–,–,–,–,–,0.495,0.625,1.85,1.68
